B1: chitinase, Q54276 (parent)
chain: MSTRKAVIGYYFIPTNQINNYTETDTSVVPFPVSNITPAKAKQLTHINFSFLDINSNLECAWDPATNDAKARDVVNRLTALKAHNPSLRIMFSIGGWYYSNDLGVSHANYVNAVKTPASRAKFAQSCVRIMKDYGFDGVDIDWEYPQAAEVDGFIAALQEIRTLLNQQTITDGRQALPYQLTIAGAGGAFFLSRYYSKLAQIVAPLDYINLMTYDLAGPWEKVTNHQAALFGDAAGPTFYNALREANLGWSWEELTRAFPSPFSLTVDAAVQQHLMMEGVPSAKIVMGVPFYGRAFKGVSGGNGGQYSSHSTPGEDPYPSTDYWLVGCEECVRDKDPRIASYRQLEQMLQGNYGYQRLWNDKTKTPYLYHAQNGLFVTYDDAESFKYKAKYIKQQQLGGVMFWHLGQDNRNGDLLAALDRYFNAADYDDSQLDMGTGLRYTGVGPGNLPIMTAPAYVPGTTYAQGALVSYQGYVWQTKWGYITSAPGSDSAWLKVGRVA
B2: Dihydrofolate reductase type 2, P00383 (parent)
chain: MERSSNEVSNPVAGNFVFPSNATFGMGDRVRKKSGAAWQGQIVGWYCTNLTPEGYAVESEAHPGSVQIYPVAALERIN
B3: L-asparaginase 2, P00805 (parent)
chain: MEFFKKTALAALVMGFSGAALALPNITILATGGTIAGGGDSATKSNYTVGKVGVENLVNAVPQLKDIANVKGEQVVNIGSQDMNDNVWLTLAKKINTDCDKTDGFVITHGTDTMEETAYFLDLTVKCDKPVVMVGAMRPSTSMSADGPFNLYNAVVTAADKASANRGVLVVMNDTVLDGRDVTKTNTTDVATFKSVNYGPLGYIHNGKIDYQRTPARKHTSDTPFDVSKLNELPKVGIVYNYANASDLPAKALVDAGYDGIVSAGVGNGNLYKSVFDTLATAAKTGTAVVRSSRVPTGATTQDAEVDDAKYGFVASGTLNPQKARVLLQLALTQTKDPQQIQQIFNQY
B4: Persulfide dioxygenase ETHE1, mitochondrial, O95571 (parent)
chain: MAEAVLRVARRQLSQRGGSGAPILLRQMFEPVSCTFTYLLGDRESREAVLIDPVLETAPRDAQLIKELGLRLLYAVNTHCHADHITGSGLLRSLLPGCQSVISRLSGAQADLHIEDGDSIRFGRFALETRASPGHTPGCVTFVLNDHSMAFTGDALLIRGCGRTDFQQGCAKTLYHSVHEKIFTLPGDCLIYPAHDYHGFTVSTVEEERTLNPRLTLSCEEFVKIMGNLNLPKPQQIDFAVPANMRCGVQTPTA
B5: Inorganic pyrophosphatase, P0A7A9 (parent)
chain: MSLLNVPAGKDLPEDIYVVIEIPANADPIKYEIDKESGALFVDRFMSTAMFYPCNYGYINHTLSLDGDPVDVLVPTPYPLQPGSVIRCRPVGVLKMTDEAGEDAKLVAVPHSKLSKEYDHIKDVNDLPELLKAQIAHFFEHYKDLEKGKWVKVEGWENAEAAKAEIVASFERAKNK

Where “and” joins values, the source holds several entries; their conditions need not be identical. Equal entries are not always repeated.

In the first series the parent is B1. To be noted: Serratia marcescens; pH 8; Thermal; CD; sodium phosphate 20 mM; reversible: No; structure 1E6N; whole UniProt chain shown.
In the case of MSTRKAVIGYYFIPTNQINNYTETDTSVVPFPVSNITPAKAKQLTHINFSFLDINSNLECAWDPATNDAKARDVVNRLTALKAHNPSLRIMFSIGGWYYSNDLGVSHANYVNAVKTPASRAKFAQSCVRIMKDYGFDGVDIDWEYPQAAEVDGFIAALQEIRTLLNQQTITDGRQALPYQLTIAGAGAAFFLSRYYSKLAQIVAPLDYINLMTYDLAGPWEKVTNHQAALFGDPAGPTFYNALREANLGWSWEELTRAFPSPFSLTVDAAVQQHLMMEGVPSAKIVMGVPFYGRAFKGVSGGNGGQYSSHSTPGEDPYPSTDYWLVGCEECVRDKDPRIASYRQLEQMLQGNYGYQRLWNDKTKTPYLYHAQNGLFVTYDDAESFKYKAKYIKQQQLGGVMFWHLGQDNRNGDLLAALDRYFNAADYDDSQLDMGTGLRYTGVGPGNLPIMTAPAYVPGTTYAQGALVSYQGYVWQTKWGYITSAPGSDSAWLKVGRVA [G188A A234P], the Tm was 64.1 °C and the “change of melting temperature, mutant - wild type (higher = more stable)” value (“change of melting temperature, mutant” below) came to 4.2 °C.

Variants of B2 are the subject of another series. As to conditions: Escherichia coli; pH 5; 22 °C; GdnHCl; CD; phosphate 10 mM; structure 1VIE; whole UniProt chain shown.
Consider MERSSNEVSNPVAGNFVFPSNATFGMGDRVRKKSGAAWQGQIVGFYCTNLTPEGYAVESEAHPGSVQIYPVAALERIN [W45F], for which the unfolding free energy was 13.6 kcal/mol and 12.7 kcal/mol.

MERSSNEVSNPVAGNFVFPSNATFGMGDRVRKKSGAAFQGQIVGWYCTNLTPEGYAVESEAHPGSVQIYPVAALERIN [W38F]: the unfolding free energy was 15.3 kcal/mol and 15.6 kcal/mol.

Another series covers variants of B3. To be noted: Escherichia coli (strain K12); pH 7.4; 25 °C; Urea; Fluorescence; Tris-HCl 50 mM; structure 3ECA; whole UniProt chain shown.
In the case of MEFFKKTALAALVMGFSGAALALPNITILATGGAIAGGGDSATKSNYTVGKVGVENLVNAVPQLKDIANVKGEQVVNIGSQDMNDNVWLTLAKKINTDCDKTDGFVITHGTDTMEETAYFLDLTVKCDKPVVMVGAMRPSTSMSADGPFNLYNAVVTAADKASANRGVLVVMNDTVLDGRDVTKTNTTDVATFKSVNYGPLGYIHNGKIDYQRTPARKHTSDTPFDVSKLNELPKVGIVYNYANASDLPAKALVDAGYDGIVSAGVGNGNLYKSVFDTLATAAKTGTAVVRSSRVPTGATTQDAEVDDAKYGFVASGTLNPQKARVLLQLALTQTKDPQQIQQIFNQY [T34A], the unfolding free energy was 11.5 kcal/mol.

On to MEFFKKTALAALVMGFSGAALALPNITILATGGSIAGGGDSATKSNYTVGKVGVENLVNAVPQLKDIANVKGEQVVNIGSQDMNDNVWLTLAKKINTDCDKTDGFVITHGTDTMEETAYFLDLTVKCDKPVVMVGAMRPSTSMSADGPFNLYNAVVTAADKASANRGVLVVMNDTVLDGRDVTKTNTTDVATFKSVNYGPLGYIHNGKIDYQRTPARKHTSDTPFDVSKLNELPKVGIVYNYANASDLPAKALVDAGYDGIVSAGVGNGNLYKSVFDTLATAAKTGTAVVRSSRVPTGATTQDAEVDDAKYGFVASGTLNPQKARVLLQLALTQTKDPQQIQQIFNQY [T34S], for which the unfolding free energy was 11.2 kcal/mol.

With MEFFKKTALAALVMGFSGAALALPNITILATGGTIAGGGDSATKSNYTVGKVGVENLVNAVPQLKDIANVKGEQVVNIGSQDMNDNVWLTLAKKINTDCDKTDGFVITHGTDTMEETAYFLDLTVKCDKPVVMVGAMRPSASMSADGPFNLYNAVVTAADKASANRGVLVVMNDTVLDGRDVTKTNTTDVATFKSVNYGPLGYIHNGKIDYQRTPARKHTSDTPFDVSKLNELPKVGIVYNYANASDLPAKALVDAGYDGIVSAGVGNGNLYKSVFDTLATAAKTGTAVVRSSRVPTGATTQDAEVDDAKYGFVASGTLNPQKARVLLQLALTQTKDPQQIQQIFNQY [T141A], the unfolding free energy was 11.5 kcal/mol.

In the case of MEFFKKTALAALVMGFSGAALALPNITILATGGTIAGGGDSATKSNYTVGKVGVENLVNAVPQLKDIANVKGEQVVNIGSQDMNDNVWLTLAKKINTDCDKTDGFVITHGTDTMEETAYFLDLTVKCDKPVVMVGAMRPSTSMAADGPFNLYNAVVTAADKASANRGVLVVMNDTVLDGRDVTKTNTTDVATFKSVNYGPLGYIHNGKIDYQRTPARKHTSDTPFDVSKLNELPKVGIVYNYANASDLPAKALVDAGYDGIVSAGVGNGNLYKSVFDTLATAAKTGTAVVRSSRVPTGATTQDAEVDDAKYGFVASGTLNPQKARVLLQLALTQTKDPQQIQQIFNQY [S144A], the unfolding free energy is 12.4 kcal/mol.

In another series the parent is B4. To be noted: Homo sapiens; pH 7.5; Thermal; CD; Tris-HCl 50mM; NaCl 150mM; transition: 2; structure 4CHL; whole UniProt chain shown.
For the variant MAEAVLRVARRQLSQRGGSGAPILLRQMFEPVSCTFTYLLGDRESREAVLIDPVLETAPRDAQLIKELGLRLLYAVNTHCHADHITGSGLLRSLLPGCQSVISRLSGAQADLHIEDGDSIRFGRFALETRASPGHTPGCVTFVLNDHSMAFTGDALLIRGCGQTDFQQGCAKTLYHSVHEKIFTLPGDCLIYPAHDYHGFTVSTVEEERTLNPRLTLSCEEFVKIMGNLNLPKPQQIDFAVPANMRCGVQTPTA [R163Q], the Tm was determined as 55 °C and the “change of melting temperature, mutant” value is -7 °C.

With MAEAVLRVARRQLSQRGGSGAPILLRQMFEPVSCTFTYLLGDRESREAVLIDPVLETAPRDAQLIKELGLRLLYAVNTHCHADHITGSGLLRSLLPGCQSVISRLSGAQADLHIEDGDSIRFGRFALETRASPGHTPGCVTFVLNDHSMAFTGDALLIRGCGWTDFQQGCAKTLYHSVHEKIFTLPGDCLIYPAHDYHGFTVSTVEEERTLNPRLTLSCEEFVKIMGNLNLPKPQQIDFAVPANMRCGVQTPTA [R163W], the Tm amounted to 52 °C and the “change of melting temperature, mutant” value is -10 °C.

Variants of B5 are the subject of a further series. As to conditions: Escherichia coli (strain K12); pH 7; Thermal; CD; HEPES 20 mM; MgCl2 5 mM; structure 1FAJ; whole UniProt chain shown.
Regarding MSLLNVPAGKDLPEDIYVVIEIPANANPIKYEIDKESGALFVDRFMSTAMFYPCNYGYINHTLSLDGDPVDVLVPTPYPLQPGSVIRCRPVGVLKMTDEAGEDAKLVAVPHSKLSKEYDHIKDVNDLPELLKAQIAHFFEHYKDLEKGKWVKVEGWENAEAAKAEIVASFERAKNK [D27N], the Tm is 83 °C.

The series is the same for the next values; noted with them: Escherichia coli (strain K12); pH 7; Thermal; CD; HEPES 20 mM; structure 1FAJ; whole UniProt chain shown.
Take MSLLNVPAGKDLPEDIYVVIEIPANANPIKYEIDKESGALFVDRFMSTAMFYPCNYGYINHTLSLDGDPVDVLVPTPYPLQPGSVIRCRPVGVLKMTDEAGEDAKLVAVPHSKLSKEYDHIKDVNDLPELLKAQIAHFFEHYKDLEKGKWVKVEGWENAEAAKAEIVASFERAKNK [D27N]: the Tm was found to be 58 °C.

By Tm is commonly meant the temperature at the midpoint of the melting transition.

(Values after FireProtDB.)
